Measured values reported in patent US20250197493A1 (Eli Lilly, published 2025).

How the values were obtained:
[1] = biological target: T1, Cynomolgus LAG-3 ECD-His (cynomolgus monkey); experiment: SPR (Biacore), antibody captured, 37° C.
T1 construct: Bought protein (ACROBiosystems); also called ACROBiosystems Cat #LA3-C82H3
T1 chain: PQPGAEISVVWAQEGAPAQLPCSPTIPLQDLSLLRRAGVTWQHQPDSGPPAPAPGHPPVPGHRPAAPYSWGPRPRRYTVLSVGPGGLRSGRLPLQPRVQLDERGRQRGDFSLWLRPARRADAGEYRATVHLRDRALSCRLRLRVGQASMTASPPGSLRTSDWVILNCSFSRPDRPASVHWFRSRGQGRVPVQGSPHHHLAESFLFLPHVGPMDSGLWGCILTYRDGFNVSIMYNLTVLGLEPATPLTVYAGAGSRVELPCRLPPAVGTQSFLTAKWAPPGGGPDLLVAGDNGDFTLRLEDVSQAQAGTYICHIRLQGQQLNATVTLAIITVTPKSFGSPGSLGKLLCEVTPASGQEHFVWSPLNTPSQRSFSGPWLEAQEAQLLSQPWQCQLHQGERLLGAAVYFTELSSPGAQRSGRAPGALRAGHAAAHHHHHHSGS
Procedure: (§1) Surface Plasmon Resonance (SPR) at 37° C. is performed to determine the binding kinetics and affinity of LAG-3 antibodies to human LAG-3 and/or cynomolgus monkey LAG-3. A Biacore® T200 (Cytiva, Marlborough, MA) was used to measure the binding kinetics and affinities of Antibody A to human LAG-3 soluble extracellular domain (ECD) SEQ ID NO: 59) and to cynomolgus LAG-3 ECD (ACROBiosystems, Cat #LA3-C82H3; SEQ ID NO: 59) by surface plasmon resonance. Samples were diluted in HBS-EP+ (10 mM Hepes, 150 mM NaCl, 3 mM EDTA, 0.05% Tween-20, pH 7.6) (Teknova Cat #H8022) with 5 g/L of BSA (Jackson ImmunoResearch Cat #001-000-161) running buffer. PrismA Series S Sensor chip (Cat #29650263) is purchased from Cytiva.
(§2) Binding was evaluated using multi-cycle kinetics by an antibody capture method. Each cycle was performed at either 37° C. or 25° C. at a flow rate of 10 μL/min for antibody capture to the PrismA chip and 100 μL/min for analyte association (with 120 sec contact time) and dissociation (900 sec). Each cycle consisted of the following steps: injection of antibody at 1 μg/mL in HBS-EP+ targeting Rmax values of 60 RU on flow cell, injection of analyte in HBS-EP+ (concentration range of 500 nM to 0.25 nM by two-fold serial dilution for human LAG-3-His ECD (SEQ ID NO: 59) followed by 900-second dissociation phase, and regeneration using 10 μL of 10 mM glycine hydrochloride, pH 1.5 over a 60-second contact time utilizing a 10 μL/min flow rate. All analyte concentrations were determined utilizing monomeric molecular weight (MW) values. Association rates (kₒₙ) and dissociation rates (koff) for LAG-3-ECD were evaluated using double referencing by flow-cell one reference subtraction in addition to 0 nM blank subtraction and fit to “1:1 (Langmuir) binding” model in the BIAevaluation software version 4.1. The dissociation constant (KD) was calculated from the binding kinetics according to the relationship KD=Koff/Kₒₙ. Stoichiometry=[RUₘₐₓ/RUcaptured]/[MWanalyte/MWantibody] where MW_{Antibody A} is 150 kDa. Values are reported as mean±standard deviation.

[2] = biological target: T2, Human LAG-3 ECD-His (human, UniProt P18627 23-449); experiment: SPR (Biacore), antibody captured, 37° C.
T2 construct: It was the analyte in SPR and the antigen in HDX-MS; also called human LAG-3 soluble extracellular domain (ECD); human LAG-3-His ECD
T2 sequence: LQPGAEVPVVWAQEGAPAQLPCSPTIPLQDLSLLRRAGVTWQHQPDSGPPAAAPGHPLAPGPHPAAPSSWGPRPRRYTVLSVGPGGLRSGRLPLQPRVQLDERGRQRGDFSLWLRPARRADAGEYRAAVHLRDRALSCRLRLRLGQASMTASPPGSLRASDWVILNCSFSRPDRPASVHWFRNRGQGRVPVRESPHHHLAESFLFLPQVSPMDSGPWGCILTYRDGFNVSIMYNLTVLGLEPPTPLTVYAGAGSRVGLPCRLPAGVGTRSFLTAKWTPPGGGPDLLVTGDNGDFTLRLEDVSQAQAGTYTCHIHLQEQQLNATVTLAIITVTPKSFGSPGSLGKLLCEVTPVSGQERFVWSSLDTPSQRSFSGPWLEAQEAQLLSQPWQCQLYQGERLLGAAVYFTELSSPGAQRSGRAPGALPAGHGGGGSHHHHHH
Procedure: as §1, §2

[3] = biological target: T3, cell membrane-expressed cynomolgus LAG-3 (cynomolgus monkey); experiment: flow cytometry, SEB-activated cynomolgus PBMCs, CD8 T cells, percent of cells bound
T3 construct: whole, on cells; also called cell surface cynomolgus monkey LAG-3
Procedure: (§3) Cells were incubated with a 12 point, 4-fold serial dilutions of Antibody A or Isotype hG1, starting at 100 μg/mL, in PBS+2% FBS for 30 minutes at 4° C. The samples were washed and stained with 1 μg/mL Alexa Fluor 647 AffiniPure F (ab′) 2 Fragment Goat Anti-Human IgG, Fcy fragment specific (Jackson Immuno Research 109-606-098) in PBS+2% FBS for 30 minutes at 4° C. After washing thoroughly human samples were stained with CD3 Biolegend #300424, CD4 Biolegend #300512, CD8 Biolegend #301006, PD-1 Biolegend 329906, non-competing LAG3 418611 conjugated in house BN20-2739-10, Live/Dead Near IR Invitrogen L34975A, CD19 Biolegend 302218, CD33 Biolegend 366614, and CD56 Biolegend 362512 in PBS+2% FBS for 30 minutes at 4° C. Cyno samples were stained with CD3 BD 557917, CD4 BD 566910, CD8 BD 557746, PD-1 Biolegend 329906, non-competing LAG3 418611 conjugated in house BN20-2739-10, and Live/Dead Near IR Invitrogen L34975A in PBS+2% FBS for 30 minutes at 4° C. Cells were washed and processed on a BioRad ZE5 cytometer and data was analyzed with FlowJo software (BD Biosciences). Percent of cells bound by the respective antibody is quantified and graphed with Prism (Graphpad, San Diego, CA).

[4] = biological target: T4, cell membrane-expressed human LAG-3 (human, UniProt P18627 23-525); experiment: flow cytometry, SEB-activated human PBMCs, CD4 T cells, percent of cells bound
T4 construct: also called cell surface human LAG-3; hLAG-3
T4 sequence: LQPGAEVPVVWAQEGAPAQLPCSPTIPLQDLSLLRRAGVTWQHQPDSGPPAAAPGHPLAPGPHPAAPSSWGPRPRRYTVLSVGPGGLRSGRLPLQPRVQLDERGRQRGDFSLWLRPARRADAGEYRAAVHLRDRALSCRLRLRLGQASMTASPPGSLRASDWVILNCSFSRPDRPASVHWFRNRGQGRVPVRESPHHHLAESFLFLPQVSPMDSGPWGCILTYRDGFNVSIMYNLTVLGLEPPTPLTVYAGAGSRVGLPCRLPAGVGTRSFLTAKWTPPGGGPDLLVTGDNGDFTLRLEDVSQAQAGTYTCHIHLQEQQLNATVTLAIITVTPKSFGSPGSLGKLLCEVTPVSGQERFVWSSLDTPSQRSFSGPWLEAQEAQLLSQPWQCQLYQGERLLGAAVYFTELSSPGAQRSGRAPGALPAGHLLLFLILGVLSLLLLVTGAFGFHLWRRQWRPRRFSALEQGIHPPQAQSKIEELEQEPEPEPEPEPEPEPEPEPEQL
Procedure: as §3

[5] = biological target: T4, cell membrane-expressed human LAG-3; experiment: flow cytometry, SEB-activated human PBMCs, CD8 T cells, percent of cells bound
Procedure: as §3

[6] = biological target: T3, cell membrane-expressed cynomolgus LAG-3; experiment: flow cytometry, SEB-activated cynomolgus PBMCs, CD4 T cells, percent of cells bound
Procedure: as §3

[7] = biological target: T1, Cynomolgus LAG-3 ECD-His; experiment: SPR (Biacore), antibody captured, 25° C.
Procedure: as §1, §2

[8] = biological target: T2, Human LAG-3 ECD-His; experiment: SPR (Biacore), antibody captured, 25° C.
Procedure: as §1, §2

B1: Antibody A (antibody, human IgG1, kappa, V domains shown)
VH: QVQLQESGPGLVKPSQTLSLTCTVSGGSISSGGYYWSWIRQHPGKGLEWIGYIYYSGITYYNPSLKSRVTISVDTSKNQFSLKLSSVTAADTAVYYCARSAVTTPFDYWGQGTLVTVSS
VL: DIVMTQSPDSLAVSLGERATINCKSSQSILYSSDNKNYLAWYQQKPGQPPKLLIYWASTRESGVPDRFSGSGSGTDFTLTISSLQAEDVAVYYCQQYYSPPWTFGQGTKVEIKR
notes: Human IgG1 heavy chain, kappa light chain; also called anti-human LAG-3 agonist antibody
Kd [1]: 0.13 nM | koff [1]: 0.00035 s⁻¹ | kon [1]: 2.7e+06 M⁻¹ s⁻¹ | Kd [2]: 0.064 nM | koff [2]: 0.0013 s⁻¹ | kon [2]: 2.1e+07 M⁻¹ s⁻¹ | EC50 [3]: 0.183 µg/mL | EC50 [4]: 0.0156 µg/mL | EC50 [5]: 0.0155 µg/mL | EC50 [6]: 0.857 µg/mL | Kd [7]: 0.038 nM | koff [7]: 0.00015 s⁻¹ | kon [7]: 3.9e+06 M⁻¹ s⁻¹ | Kd [8]: 0.14 nM | koff [8]: 0.0012 s⁻¹ | kon [8]: 8.3e+06 M⁻¹ s⁻¹
